Assay results reported in patent US20100184663A1 (UNIVERSITY OF UTAH RESEARCH FOUNDATION, published 2010).
Like-named read-outs stand apart in the source and are kept apart here. Bridge positions count the residues as written; N and C are the ends. Square brackets hold non-standard residues; d marks the D form. Ends that are not written are not given here. I, II: the chains in the order shown.

B1: PIE7-GK long claw (peptide)
peptide: G[dA][dC][dD][dY][dP][dE][dW][dQ][dW][dL][dC][dA][dA]G[dK]
modifications: disulfide 3-12 (inferred); also: three peptides attached to central scaffold LC-TSAT (six-atom spacer), site not given here
B2: D10-p5 (peptide)
peptide: Ac-[dK][dK]G[dA][dC][dE][dL][dL]G[dW][dE][dW][dA][dW][dL][dC][dA][dA]-NH2
modifications: disulfide 5-16 (inferred)
B3: PIE7-GK short claw (peptide)
peptide: G[dA][dC][dD][dY][dP][dE][dW][dQ][dW][dL][dC][dA][dA]G[dK]
modifications: disulfide 3-12 (inferred); also: three peptides attached directly to central scaffold TSAT, site not given here
B4: 2K-PIE2 (peptide)
peptide: Ac-[dK][dK]G[dA][dC][dD][dY][dP][dE][dW][dR][dW][dL][dC][dA][dA]-NH2
modifications: disulfide 5-14 (inferred)
B5: C5C(PIE7-GK)3 (peptide)
peptide 1: G[dA][dC][dD][dY][dP][dE][dW][dQ][dW][dL][dC][dA][dA]G[dK]
peptide 2: G[dA][dC][dD][dY][dP][dE][dW][dQ][dW][dL][dC][dA][dA]G[dK][dK]
modifications: disulfide I:3-I:12, II:3-II:12 (inferred); also: trimer: two chain 1 copies joined via C-terminal Lys by PEG5 spacers to the C-terminal Lys of central chain 2
B6: PEG-(PIE2-AAA)2 (peptide)
peptide: Ac-[dK]G[dA][dC][dD][dY][dP][dE][dW][dR][dW][dL][dC][dA][dA][dA]-NH2
modifications: disulfide 4-13 (inferred); also: dimer: N-terminal Lys of both peptides joined by bis(NHS-ester)PEG crosslinker
B7: PEG-(PIE7)2 (peptide)
peptide: Ac-[dK]G[dA][dC][dD][dY][dP][dE][dW][dQ][dW][dL][dC][dA][dA]-NH2
modifications: disulfide 4-13 (inferred); also: dimer: N-terminal Lys of both peptides joined by Bis-dPEG9 NHS ester crosslinker
B8: PEG-PIE7 (peptide)
peptide: Ac-KG[dA][dC][dD][dY][dP][dE][dW][dQ][dW][dL][dC][dA][dA]-NH2
modifications: disulfide 4-13 (inferred); not fully specified (residue 1)
B9: PIE7 (peptide)
peptide: Ac-[dK]G[dA][dC][dD][dY][dP][dE][dW][dQ][dW][dL][dC][dA][dA]-NH2
modifications: disulfide 4-13 (inferred)
B10: PIE8 (peptide)
peptide: Ac-[dK]G[dA][dC][dD][dY][dK][dE][dW][dQ][dW][dL][dC][dA][dA]-NH2
modifications: disulfide 4-13 (inferred)
B11: PIE2-AAA (peptide)
peptide: Ac-[dK]G[dA][dC][dD][dY][dP][dE][dW][dR][dW][dL][dC][dA][dA][dA]-NH2
modifications: disulfide 4-13 (inferred)
B12: PIE2 (peptide)
peptide: Ac-[dK]G[dA][dC][dD][dY][dP][dE][dW][dR][dW][dL][dC][dA][dA]-NH2
modifications: disulfide 4-13 (inferred)

Tests used:
Assay in all cases: cell-based or functional assay
[1] = biological target: T1, HIV-1 gp41 (HXB2 strain) (HIV-1 HXB2, UniProt P04578 512-856)
[2] = biological target: HIV-1 gp41 (JRFL strain) (HIV-1 JRFL)
[3] = biological target: T1, HIV-1 gp41 (HXB2 strain); remark: listed apart in the source
[4] = biological target: T1, HIV-1 gp41 (HXB2 strain); remark: listed apart in the source
[5] = biological target: HIV-1 gp41 (JRFL strain) (HIV-1 JRFL); remark: listed apart in the source

Binder | IC50 (HXB2), pseudovirion entry [1] [nM] | IC50 (JRFL), pseudovirion entry [2] [nM] | IC50 (HXB2), single-cycle viral infectivity assay [3] [nM] | further results
B1 | 0.124 | 20.6 | – | –
B2 | – | – | 9510 | –
B3 | 0.234 | 86.6 | – | –
B4 | – | – | 2570 | fold decrease in fold potency against PIE2, viral entry (HXB2) [4]: ~2 fold
B5 | 0.13 | 6.73 | – | fold difference in potency against JRFL between C5C-PIE7-trimer and N9N-PIE7-trimer [5]: ~35 fold
B6 | – | – | – | IC50 (HXB2), single-cycle viral infectivity assay [4]: 21 nM; fold improvement of IC50 over the corresponding monomer [4]: ~70 fold
B7 | 1.9 | 2300 | 1.9 | fold improvement of IC50 over the corresponding monomer [4]: ~325 fold
B8 | – | – | 940 | fold reduction in potency against unmodified PIE7, viral entry (HXB2) [4]: ~1.5 fold
B9 | 620 | 24000 | 620 | fold potency against D10-p5, viral entry (HXB2) [4]: ~15 fold; IC50 (JRFL), viral entry [5]: 24400 nM; fold reduction in potency against JRFL compared with HXB2 [5]: ~40 fold
B10 | – | – | 1680 | –
B11 | – | – | 1440 | –
B12 | – | – | 1320 | –
